The source of these data is publication PMC6813122, “Characterization of a highly stable α-galactosidase from thermophilic Rasamsonia emersonii heterologously expressed in a modified Pichia pastoris expression system” (Microbial Cell Factories, 2019).

The target in series [1] is ReGal2, GH27 α-galactosidase from Rasamsonia emersonii (Rasamsonia emersonii). Briefly: SEC; gel filtration of purified ReGal2, Superdex 200 Increase 10/300 GL, 10 mM Tris-HCl pH 8.0 plus 100 mM NaCl, calibrated with molecular weight standards; self-association, oligomeric state of the native enzyme. (Size exclusion chromatography separates by hydrodynamic size, large species first.)

Substrate in the series “purified protein”: O=[N+]([O-])c1ccc(O[C@H]2O[C@H](CO)[C@H](O)[C@H](O)[C@H]2O)cc1
Briefly: purified protein. The note with it: 80 °C, 20 mM HAc-NaAc buffer pH 4.8 (general assay buffer), 0.25-2.0 mM pNPGal.

“ReGal2, GH27 α-galactosidase from Rasamsonia emersonii (enzyme)”: the stoichiometry N in series [1] was found to be 6.

B1: ReGal2 (Rasamsonia emersonii CBS 393.64) (protein)
chain: LDNGLAITPQMGWNTWNSFGCSLNETVILDAAEKLVSLGFKDLGYEYVVLDDCWSAGRNASGYLVPDPAKFPNGIDGLAEKIHALGLKIGIYSSAGTMTCARYAGSLGYEEKDAALWASWGIDYLKYDNCYNQGQEGTPKLSYDRYNAMGQALNKTGRPILYSLCNWGVDGPWNFASTIANSWRTSGDLLNTWDRDDANCPCSELEGLDCKTPGYKCSILNVINKAVYYPSKAFPGAWNDLDMLQVGNGGLTDDEAVAHMSLWAAFKSPLLMTNVLSNIDPPTLSILQNPAVLAVSQDPVGSSVNRIWRYYVDDVDANGYGEIQLFSGGLAGGDQLVLLLNAGSKDRTMNATLEDIFWEDGPGGTASQVQQSWDVYDLWANRMSNETAAAIINAANSTGSAAPAAPINMTALGGAKHVYSQVPPSDSKALMGTKVGSVQPSGTVKAFVKAHGVAMLRLRQQSQKKDEL
B1: in “purified protein”, the Km came out at 190 ± 40 µM, the kcat was found to be 623 s⁻¹ and the kcat/Km was found to be 3.28e+06 M⁻¹ s⁻¹.

The term stoichiometry N denotes the number of molecules, sites or subunits per partner or assembly. Usually Km stands for the concentration of substrate that gives half-maximal velocity. The kcat is the maximal rate divided by the concentration of active sites. As a reminder, the kcat/Km is the turnover number divided by the Michaelis constant.
